This passage reports Fold diff results from US20220332804A1 (CSL INNOVATION, published 2022).

Test in all cases: SPR, KD relative to WT C2;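 also: biacore SPR at 37 °C, anti-C2 mAbs captured on anti-human IgG chips with alanine or serine point mutants of C2 as analyte, KD from 1:1 fit compared with wild-type C2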
(SPR reads the build-up and loss of mass on a sensor chip optically.)

The target in one test is T1, human C2 K430A (human, UniProt P06681 21-752).
T1 sequence: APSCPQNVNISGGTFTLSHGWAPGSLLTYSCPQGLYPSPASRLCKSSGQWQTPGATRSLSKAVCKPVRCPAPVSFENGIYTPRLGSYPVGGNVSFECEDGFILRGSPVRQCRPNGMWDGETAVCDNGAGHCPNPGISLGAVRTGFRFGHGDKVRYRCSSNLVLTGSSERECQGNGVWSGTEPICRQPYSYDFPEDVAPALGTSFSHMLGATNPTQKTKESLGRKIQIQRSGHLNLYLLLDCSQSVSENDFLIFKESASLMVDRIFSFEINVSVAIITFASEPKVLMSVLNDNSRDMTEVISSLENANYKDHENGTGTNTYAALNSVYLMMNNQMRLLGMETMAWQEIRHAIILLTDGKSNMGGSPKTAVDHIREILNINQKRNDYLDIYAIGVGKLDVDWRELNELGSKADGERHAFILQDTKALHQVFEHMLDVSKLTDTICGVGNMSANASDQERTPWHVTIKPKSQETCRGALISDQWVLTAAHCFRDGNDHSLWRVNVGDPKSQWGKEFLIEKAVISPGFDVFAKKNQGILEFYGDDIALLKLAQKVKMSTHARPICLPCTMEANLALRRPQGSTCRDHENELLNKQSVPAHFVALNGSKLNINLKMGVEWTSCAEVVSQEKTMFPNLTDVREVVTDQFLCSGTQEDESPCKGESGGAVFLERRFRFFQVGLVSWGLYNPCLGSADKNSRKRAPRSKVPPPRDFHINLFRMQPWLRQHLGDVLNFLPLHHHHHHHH

Another test concerns the target T2, human C2 N403A (human, UniProt P06681 21-752).
T2 sequence: T1 sequence with N383A, A410K

In another test the target is T3, human C2 E433A (human, UniProt P06681 21-752).
T3 sequence: T1 sequence with A410K, E413A

In a further test the target is T4, human C2 V465A (human, UniProt P06681 21-752).
T4 sequence: T1 sequence with A410K, V445A

Changes are numbered by the printed parent chain.

B1: RF16-242 (antibody, human IgG4 S228P, lambda, V domains shown)
VH: EVQLLQSGAEVKKPGESLKISCKGSGYSFTSYWIGWVRQMPGKGLEWMGIIYPGDSDTRYSPSFQGQVTISADKSISTAYLQWSSLKASDTAMYYCARRGHYGDYFDYWGQGTLVTVSS
VL: SYELTQPPSVSVSPGQTARITCSGDALPKKYAYWYHQKSGQAPVLVIYEDRRRPSEIPERFSGSSSGTMATLTITGAQVEDEGVYFCYSRDRAGNQRVFGGGTQLTVLG
notes: pH-dependent anti-C2 antibody from a phage display library
For the molecule B1, the Fold diff in the test with human C2 K430A came out at 13 fold; with human C2 N403A it was 1 fold; with human C2 E433A it was 0 fold; in the test with human C2 V465A it was 2 fold.
